Data as given in PMC9700037.

Columns and labels:
His6-tev-DPP9, Q86TI2 [1] = experiment: SEC-MALS; co-eluting SEC fractions of FIIND, DPP9 and free UPA co-expressed in Sf9 and co-purified; 0.5-1.0 mg/ml, Superose 6 increase (10/300) GL, buffer A without glycerol; conditions: remark: other sources report otherwise
[2] = biological target: T1, biotin-MBP-NLRP1 wt (Avi-MBP-tev-NLRP1) (human), Q9C000; experiment: SPR; NLRP1 void (high MW) fraction; conditions: enzyme; chains chain; biotin (on the Avi tag, BirA co-expressed); remark: other sources report otherwise
T1 chain: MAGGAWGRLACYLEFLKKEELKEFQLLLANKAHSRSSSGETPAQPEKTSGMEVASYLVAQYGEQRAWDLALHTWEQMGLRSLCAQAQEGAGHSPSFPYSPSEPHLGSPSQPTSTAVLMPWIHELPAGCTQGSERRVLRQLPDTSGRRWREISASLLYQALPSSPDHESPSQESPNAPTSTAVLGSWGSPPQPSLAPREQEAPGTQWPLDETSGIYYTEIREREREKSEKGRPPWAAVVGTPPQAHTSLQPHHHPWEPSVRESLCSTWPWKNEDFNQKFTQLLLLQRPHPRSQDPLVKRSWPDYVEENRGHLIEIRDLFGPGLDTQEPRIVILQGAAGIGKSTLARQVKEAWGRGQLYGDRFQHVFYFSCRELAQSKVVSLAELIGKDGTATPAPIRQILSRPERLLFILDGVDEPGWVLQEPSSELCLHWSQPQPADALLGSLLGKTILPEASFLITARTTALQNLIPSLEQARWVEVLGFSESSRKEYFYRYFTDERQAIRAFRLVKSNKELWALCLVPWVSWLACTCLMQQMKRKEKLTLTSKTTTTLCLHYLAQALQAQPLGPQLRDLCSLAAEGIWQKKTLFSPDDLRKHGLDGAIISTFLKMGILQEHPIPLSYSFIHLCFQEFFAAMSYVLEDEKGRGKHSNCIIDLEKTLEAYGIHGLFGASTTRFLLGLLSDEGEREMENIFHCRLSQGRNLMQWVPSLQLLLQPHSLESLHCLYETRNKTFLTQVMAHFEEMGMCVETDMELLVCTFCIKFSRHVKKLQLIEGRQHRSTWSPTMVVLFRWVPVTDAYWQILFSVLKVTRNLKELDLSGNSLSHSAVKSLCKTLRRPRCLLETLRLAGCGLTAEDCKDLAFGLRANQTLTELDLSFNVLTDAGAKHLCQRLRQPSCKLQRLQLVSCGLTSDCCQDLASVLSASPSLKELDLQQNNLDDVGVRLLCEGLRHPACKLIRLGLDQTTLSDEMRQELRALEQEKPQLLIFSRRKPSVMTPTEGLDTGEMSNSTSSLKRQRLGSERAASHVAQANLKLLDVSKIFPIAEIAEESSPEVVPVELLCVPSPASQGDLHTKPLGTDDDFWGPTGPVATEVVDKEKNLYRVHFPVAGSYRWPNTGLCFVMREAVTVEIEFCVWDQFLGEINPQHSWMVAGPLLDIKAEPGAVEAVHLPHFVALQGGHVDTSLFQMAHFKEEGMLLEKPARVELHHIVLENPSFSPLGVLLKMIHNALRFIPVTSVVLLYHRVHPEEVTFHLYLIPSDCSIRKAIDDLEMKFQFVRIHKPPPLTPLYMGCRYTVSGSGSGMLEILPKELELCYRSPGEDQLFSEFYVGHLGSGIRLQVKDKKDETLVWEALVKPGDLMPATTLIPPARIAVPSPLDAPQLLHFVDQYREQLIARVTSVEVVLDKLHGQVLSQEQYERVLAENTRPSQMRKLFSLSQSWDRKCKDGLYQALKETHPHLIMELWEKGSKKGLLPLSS

His6-tev-DPP9, Q86TI2 [3] = experiment: SEC-MALS; co-eluting SEC fractions of FIIND and DPP9 co-expressed in Sf9 WITHOUT the free UPA construct, co-purified; 0.5-1.0 mg/ml, Superose 6 increase (10/300) GL, buffer A without glycerol; conditions: remark: other sources report otherwise
[4] = biological target: T1, biotin-MBP-NLRP1 wt (Avi-MBP-tev-NLRP1) …; experiment: SPR; 20-fold excess Val-boroPro (VbP); NLRP1 multimer; conditions: enzyme; chains chain; biotin (on the Avi tag, BirA co-expressed); remark: other sources report otherwise
[5] = biological target: T1, biotin-MBP-NLRP1 wt (Avi-MBP-tev-NLRP1) …; experiment: SPR; Biotin-FLAG-NLRP1 (from HEK293T) or biotin-MBP-NLRP1 (from Sf9, multimer fraction) or biotin-MBP immobilised on a streptavidin chip; DPP9 injected at 78-2500 nM, single-cycle kinetics, 10 mM Hepes pH 7.5, 150 mM NaCl, 0.5 mM TCEP, 0.05% Tween-20; conditions: remark: other sources report otherwise
[6] = biological target: T2, Biotin-FLAG-NLRP1 wt (human), Q9C000; experiment: as above; conditions: remark: other sources report otherwise
T2 chain: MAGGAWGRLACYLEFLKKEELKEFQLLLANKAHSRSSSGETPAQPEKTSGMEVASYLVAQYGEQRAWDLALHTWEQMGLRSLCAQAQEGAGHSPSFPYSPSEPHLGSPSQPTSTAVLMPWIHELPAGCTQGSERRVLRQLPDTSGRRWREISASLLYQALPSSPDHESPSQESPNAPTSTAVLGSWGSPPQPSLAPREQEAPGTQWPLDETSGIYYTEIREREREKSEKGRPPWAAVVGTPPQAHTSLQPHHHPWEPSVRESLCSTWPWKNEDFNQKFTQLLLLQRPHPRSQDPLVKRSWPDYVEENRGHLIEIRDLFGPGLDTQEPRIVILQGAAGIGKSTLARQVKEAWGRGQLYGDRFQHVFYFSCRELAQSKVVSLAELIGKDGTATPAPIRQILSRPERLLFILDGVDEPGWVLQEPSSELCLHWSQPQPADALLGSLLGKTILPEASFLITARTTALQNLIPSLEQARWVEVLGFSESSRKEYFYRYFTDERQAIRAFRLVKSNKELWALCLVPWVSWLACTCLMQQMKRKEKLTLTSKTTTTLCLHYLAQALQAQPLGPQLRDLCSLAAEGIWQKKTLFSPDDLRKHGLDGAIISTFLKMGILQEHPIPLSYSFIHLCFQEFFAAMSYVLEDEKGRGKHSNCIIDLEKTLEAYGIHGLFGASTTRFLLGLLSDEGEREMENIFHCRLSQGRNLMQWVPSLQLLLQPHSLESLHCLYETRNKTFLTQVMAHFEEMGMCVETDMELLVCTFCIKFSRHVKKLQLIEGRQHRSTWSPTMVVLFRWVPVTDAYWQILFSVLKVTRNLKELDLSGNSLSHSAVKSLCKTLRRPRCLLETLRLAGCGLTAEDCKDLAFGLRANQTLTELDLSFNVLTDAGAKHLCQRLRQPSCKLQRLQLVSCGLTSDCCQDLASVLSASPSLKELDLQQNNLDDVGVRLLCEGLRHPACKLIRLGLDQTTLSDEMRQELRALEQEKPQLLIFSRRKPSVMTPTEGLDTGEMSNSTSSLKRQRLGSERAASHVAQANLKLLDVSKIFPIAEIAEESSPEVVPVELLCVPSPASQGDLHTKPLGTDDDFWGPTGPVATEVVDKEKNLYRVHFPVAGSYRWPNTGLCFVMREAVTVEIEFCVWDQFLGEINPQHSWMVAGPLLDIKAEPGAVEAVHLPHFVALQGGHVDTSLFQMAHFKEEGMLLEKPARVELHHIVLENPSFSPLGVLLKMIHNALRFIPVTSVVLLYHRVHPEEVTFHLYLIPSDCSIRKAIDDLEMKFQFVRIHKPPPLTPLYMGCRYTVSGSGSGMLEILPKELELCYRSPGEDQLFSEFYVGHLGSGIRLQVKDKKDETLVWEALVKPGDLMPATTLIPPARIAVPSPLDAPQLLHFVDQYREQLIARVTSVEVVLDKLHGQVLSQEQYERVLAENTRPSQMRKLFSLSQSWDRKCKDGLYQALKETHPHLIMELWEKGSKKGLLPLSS

stoichiometry N (His6-tev-DPP9, Q86TI2 [1]): 2
Kd [2]: 173 nM
stoichiometry N (His6-tev-DPP9, Q86TI2 [3]): 2
Kd [4]: 168 nM
Kd [5]: 140 nM
Kd [6]: 155 nM
B1: His6-tev-DPP9, Q86TI2 1-863 (protein)
chain: MATTGTPTADRGDAAATDDPAARFQVQKHSWDGLRSIIHGSRKYSGLIVNKAPHDFQFVQKTDESGPHSHRLYYLGMPYGSRENSLLYSEIPKKVRKEALLLLSWKQMLDHFQATPHHGVYSREEELLRERKRLGVFGITSYDFHSESGLFLFQASNSLFHCRDGGKNGFMVSPMKPLEIKTQCSGPRMDPKICPADPAFFSFINNSDLWVANIETGEERRLTFCHQGLSNVLDDPKSAGVATFVIQEEFDRFTGYWWCPTASWEGSEGLKTLRILYEEVDESEVEVIHVPSPALEERKTDSYRYPRTGSKNPKIALKLAEFQTDSQGKIVSTQEKELVQPFSSLFPKVEYIARAGWTRDGKYAWAMFLDRPQQWLQLVLLPPALFIPSTENEEQRLASARAVPRNVQPYVVYEEVTNVWINVHDIFYPFPQSEGEDELCFLRANECKTGFCHLYKVTAVLKSQGYDWSEPFSPGEDEFKCPIKEEIALTSGEWEVLARHGSKIWVNEETKLVYFQGTKDTPLEHHLYVVSYEAAGEIVRLTTPGFSHSCSMSQNFDMFVSHYSSVSTPPCVHVYKLSGPDDDPLHKQPRFWASMMEAASCPPDYVPPEIFHFHTRSDVRLYGMIYKPHALQPGKKHPTVLFVYGGPQVQLVNNSFKGIKYLRLNTLASLGYAVVVIDGRGSCQRGLRFEGALKNQMGQVEIEDQVEGLQFVAEKYGFIDLSRVAIHGWSYGGFLSLMGLIHKPQVFKVAIAGAPVTVWMAYDTGYTERYMDVPENNQHGYEAGSVALHVEKLPNEPNRLLILHGFLDENVHFFHTNFLVSQLIRAGKPYQLQIYPNERHSIRCPESGEHYEVTLLHFLQEYL
